The target in this experiment is Flag-tagged NS5B (hepatitis C virus). As to the kind of experiment: cell-based or functional assay.

“protein kinase C-related kinase 2 (PRK2) (from UniProt Q16513 1-984) (enzyme)” returned a level of p-NS5B (32P-orthophosphate metabolic labeling, immunoprecipitation, autoradiography) after PRK2 silencing with siPRK2-1 of 55%.

For the origin of these results see patent US20170002361A1.
